From publication PMC3929611, “Generation of Recombinant Antibodies to Rat GABAA Receptor Subunits by Affinity Selection on Synthetic Peptides” (PLoS ONE, 2014) come the findings set out here.

Primed or numbered codes have the meaning given here. Ends that are not written are not given here. * marks the point of attachment. Biotin = O=C1N[C@H]2[C@H](CS[C@H]2CCCCC(=O)*)N1; FITC′ = fluorescein isothiocyanate

In assay [1] the target is T1, biotinylated α1 peptide (GABAA receptor α1 subunit peptide) (Rattus norvegicus, SMILES …).
T1 construct: Serine-Glycine-Serine linker between the N-terminal biotin and the peptide; GABAA receptor subunit α1, rat, residues 1-15; also called alpha 1; source: synthetic peptide
T1 chain: Biotin-SGSQPSQDELKDNTTVFT-NH2
The assay is described as follows: SRU BIND Reader (label-free plate-based biosensor); biotinylated peptides (10 µg/mL) captured on streptavidin-coated BIND plates, blocked with PBST + 5% BSA, scFvs (0.008-17.5 µM) added in elution buffer, 1 h at RT; shift of peak wavelength against concentration. The following applies: both partners purified.

The target of the next assay is T2, FITC-labeled α1 peptide (Rattus norvegicus).
T2 construct: GABAA receptor subunit α1, rat, residues 1-15; also called FITC-conjugated target peptide (α1); source: synthetic peptide, HPLC purified
T2 chain: {FITC′}-QPSQDELKDNTTVFT
Nature of the assay: fluorescence polarisation; 6 µM FITC-α1 peptide or 4 µM FITC-β2 peptide with varying scFv (0-35 µM; G11 0-10 µM) or A10 scFv-Fc (0-1 µM) in PBS + 200 mM imidazole, overnight at 4°C or 2 h at RT. The following applies: both partners purified. Background: Fluorescence polarisation rises when a labelled molecule tumbles more slowly, as on binding a larger partner.

Assay [2] has as its target T3, α1β2γ2 GABAA receptor expressed in Xenopus laevis oocytes (rat α1, rat β2 and human γ2 subunit sequences) (Rattus norvegicus (alpha1, beta2); Homo …, UniProt P62813;P63138;P18507).
T3 construct: GABAA receptor subunit α1, rat; GABAA receptor subunit β2, rat; GABAA receptor subunit γ2, human; also called intact GABAA receptor; GABAA receptors heterologously expressed by Xenopus laevis oocytes; source: Xenopus laevis oocytes injected with mRNA of each subunit, on the oocyte surface; copies: + +
Nature of the assay: immunostaining of cells or tissue; Xenopus oocytes expressing α1β2γ2 GABAA receptors or non-expressing, blocked with 10% fetal bovine serum, incubated with scFv overnight at 16°C, detected with FITC-conjugated M2 anti-Flag, confocal microscopy. The following applies: one partner purified.

Assay [3] addresses T4, GABAA receptor α1 subunit, native, in mouse retina (Mus musculus C57BL/6J, UniProt P62812).
T4 construct: GABAA receptor subunit α1, mouse, within native receptors of the retina; Tissue fixed in 4% paraformaldehyde; also called native GABAA receptors in the mouse retina; source: endogenous, C57BL/6J mouse retina, fixed cryosections
Nature of the assay: immunostaining of cells or tissue; 16 µm cryosections of paraformaldehyde-fixed mouse retina, biotinylated scFv, detected with Cy5-conjugated streptavidin, confocal microscopy. The settings on record: one partner purified.

Assay [4] addresses T5, MBP-α1 peptide fusion protein (Rattus norvegicus).
T5 construct: GABAA receptor subunit α1, rat, residues 1-15, inserted at the C-terminus of the MBP gene in pAT224; also called MBP-fusion protein; source: E. coli, purified (His60 Ni Superflow resin); not shown: MBP, N-terminal, kept
T5 chain: QPSQDELKDNTTVFT
The assay is described as follows: far-Western, overlay or dot blot; dot blot; 1 µg to 0.0075 µg MBP-fusion protein adsorbed on PVDF membrane, about 10 nM A10 scFv or A10 scFv-Fc overnight at 4°C, detected with α-Flag-800CW. The following applies: both partners purified.

For assay [5], the target named is T6, biotinylated β2 peptide (GABAA receptor β2 subunit peptide) (Rattus norvegicus (paper: rat/human), biotin at the N-terminus; C-terminal amide).
T6 construct: Serine-Glycine-Serine linker between the N-terminal biotin and the peptide; GABAA receptor subunit β2, rat/human, residues 1-19; also called beta 2; source: synthetic peptide
T6 chain: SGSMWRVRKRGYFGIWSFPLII
Nature of the assay: SRU BIND Reader (label-free plate-based biosensor); biotinylated peptides (10 µg/mL) captured on streptavidin-coated BIND plates, blocked with PBST + 5% BSA, scFvs (0.008-17.5 µM) added in elution buffer, 1 h at RT; shift of peak wavelength against concentration. The settings on record: both partners purified.

The next assay addresses T7, FITC-labeled β2 peptide (Rattus norvegicus (paper: rat/human)).
T7 construct: GABAA receptor subunit β2, rat/human, residues 1-19; also called FITC-conjugated target peptide (β2); source: synthetic peptide, HPLC purified
T7 chain: {FITC′}-MWRVRKRGYFGIWSFPLII
Nature of the assay: fluorescence polarisation; 6 µM FITC-α1 peptide or 4 µM FITC-β2 peptide with varying scFv (0-35 µM; G11 0-10 µM) or A10 scFv-Fc (0-1 µM) in PBS + 200 mM imidazole, overnight at 4°C or 2 h at RT. The settings on record: both partners purified.

T3 sequence (P62813 28-455, chain 1 of 3): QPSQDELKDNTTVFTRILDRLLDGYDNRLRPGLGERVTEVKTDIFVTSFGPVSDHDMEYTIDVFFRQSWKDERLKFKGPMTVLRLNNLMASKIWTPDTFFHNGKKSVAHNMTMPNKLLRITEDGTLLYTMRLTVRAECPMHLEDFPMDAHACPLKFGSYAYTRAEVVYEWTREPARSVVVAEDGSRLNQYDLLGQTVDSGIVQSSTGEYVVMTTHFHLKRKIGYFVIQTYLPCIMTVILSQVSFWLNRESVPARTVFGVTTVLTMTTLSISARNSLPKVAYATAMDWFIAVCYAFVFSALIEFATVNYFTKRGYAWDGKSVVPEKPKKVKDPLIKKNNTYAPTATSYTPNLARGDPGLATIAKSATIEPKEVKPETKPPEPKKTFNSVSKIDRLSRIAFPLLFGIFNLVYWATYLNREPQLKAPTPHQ
T3 sequence (P63138 26-474, chain 2 of 3): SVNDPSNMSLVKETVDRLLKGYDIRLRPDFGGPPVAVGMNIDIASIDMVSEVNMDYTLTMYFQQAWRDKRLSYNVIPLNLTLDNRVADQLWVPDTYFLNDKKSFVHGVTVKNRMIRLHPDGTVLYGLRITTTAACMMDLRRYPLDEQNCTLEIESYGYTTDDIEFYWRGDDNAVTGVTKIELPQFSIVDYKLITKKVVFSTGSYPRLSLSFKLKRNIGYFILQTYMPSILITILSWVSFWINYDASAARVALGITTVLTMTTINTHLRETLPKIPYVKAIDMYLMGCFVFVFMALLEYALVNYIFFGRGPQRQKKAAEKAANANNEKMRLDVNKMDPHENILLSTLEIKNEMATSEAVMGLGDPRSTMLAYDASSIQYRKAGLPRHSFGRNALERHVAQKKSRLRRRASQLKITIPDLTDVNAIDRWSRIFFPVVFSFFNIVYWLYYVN
T3 sequence (P18507 40-475, chain 3 of 3): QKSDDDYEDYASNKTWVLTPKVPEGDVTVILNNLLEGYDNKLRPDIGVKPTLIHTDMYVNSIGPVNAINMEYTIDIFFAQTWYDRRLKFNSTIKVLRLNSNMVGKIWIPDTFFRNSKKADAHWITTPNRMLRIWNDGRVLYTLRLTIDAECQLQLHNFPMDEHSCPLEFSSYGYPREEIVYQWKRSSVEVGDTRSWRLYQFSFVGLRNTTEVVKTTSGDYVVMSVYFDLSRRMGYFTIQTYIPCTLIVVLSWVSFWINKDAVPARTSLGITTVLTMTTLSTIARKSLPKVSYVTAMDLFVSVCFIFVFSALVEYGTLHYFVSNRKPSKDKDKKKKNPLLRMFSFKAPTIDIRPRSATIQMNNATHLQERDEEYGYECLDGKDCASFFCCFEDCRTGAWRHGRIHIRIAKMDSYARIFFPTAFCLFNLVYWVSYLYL
T4 sequence (P62812 28-455): as the sequence (P62813 28-455, chain 1 of 3) above

B1: A10 scFv (anti-α1 subunit-specific scFv), soluble protein (scFv, V domains shown)
VH: EVQLVQSGAEVKKPGASVKVSCKASGYTFTSYYMHWVRQAPGQGLEWMGIINPSGGSTSYAQKFQGRVTMTRDTSTSTVYMELSSLRSEDTAVYYCARDGWGGSSFLDYWGQGTLVTVSS
VL: SYELTQPPSVSVSPGQTARITCSGDALPKKYAYWYQQKSGQAPVLVIYEDSKRPSGIPERFSGSSSGTMATLTISGAQVEDEADYYCYSKDNTGYQMVFGGGTKLTVL
notes: human scFv from a naive phage-display library, order VL-linker-VH; also called scFv A10; anti-α1 scFv; source: P. pastoris X33, secreted, purified (Ni-NTA)
The Kd is the constant that tells how readily two partners part at equilibrium. In the case of B1, the Kd was determined as 2400 nM in assay [1] and 3500 nM with FITC-labeled α1 peptide. In addition, the binding result in assay [2] is listed as “binds”.

B2: A10 scFv, biotinylated in vitro (scFv, V domains shown)
VH: B1 VH
VL: B1 VL
notes: as the scFv of m1; order VL-linker-VH; The same protein as m1, chemically biotinylated for staining of retinal cryosections; also called α1-specific scFv; source: P. pastoris X33, secreted, purified (Ni-NTA)
For B2, in assay [3], the binding result is on record as “binds”.

B3: A10 scFv-Fc (dimeric scFv-Fc version of A10) (Fc fusion, human)
VH: B1 VH
VL: B1 VL
notes: as the scFv of m1; order VL-linker-VH; also called A10-Fc; scFv-Fc A10; source: FreeStyle 293F cells, transiently transfected, secreted, purified (His60 Ni Superflow resin); not shown: Fc (human IgG), C-terminal, kept; 3x Flag, C-terminal, kept
B3: the Kd with FITC-labeled α1 peptide was found to be 26 nM. Besides, the “fold increase in dot-blot sensitivity over the scFv” value in assay [4] was ~10 fold.

B4: G8 scFv (anti-β2 subunit scFv), soluble protein (scFv, V domains shown)
VH: EVQLVQSGAEVKKPGATVKISCKVSGYTFTDYYMHWVQQAPGKGLEWMGLVDPEDGETIYAEKFQGRVTITADTSTDTAYMELSSLRSEDTAVYYCATTPPHDYYDSSGLDYWGQGTLVTVSS
VL: DIQMTQSPSSVSASVGDRVTITCRASQGINRWLAWYQQKPGKAPKLLIYAASNLQSGVPSRFSGSGSGTDFSLTISSLQPEDFATYYCQQSYSPPSTFGGGTKLEIK
notes: human scFv from a naive phage-display library, order VH-linker-VL; source: P. pastoris X33, secreted, purified (Ni-NTA)
Regarding B4, the Kd was determined as 1600 nM in assay [5] and 970 nM with FITC-labeled β2 peptide. For the same molecule, the binding result in assay [2] is on record as “binds”.
